Three molecules from patent US6893638 can be followed below.

Sequences and labels used below:
T1: B7.1/Ig fusion protein (human, UniProt P33681 35-242, 125I radiolabel where used as tracer)
T1 construct: Secreted from CHO cells; also called B7-Ig; not shown: human immunoglobulin CH2 and CH3 domains of the NEOSPLA cassette vector; isotype
T1 sequence (looked up): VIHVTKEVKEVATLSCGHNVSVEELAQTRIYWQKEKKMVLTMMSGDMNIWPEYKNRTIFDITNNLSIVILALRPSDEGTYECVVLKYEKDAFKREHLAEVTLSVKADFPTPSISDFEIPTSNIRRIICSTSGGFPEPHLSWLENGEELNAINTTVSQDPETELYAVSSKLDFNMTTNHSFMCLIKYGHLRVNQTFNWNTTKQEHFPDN

T2: membrane associated human B7.1 on cells (human, UniProt P33681 35-288)
T2 sequence (looked up): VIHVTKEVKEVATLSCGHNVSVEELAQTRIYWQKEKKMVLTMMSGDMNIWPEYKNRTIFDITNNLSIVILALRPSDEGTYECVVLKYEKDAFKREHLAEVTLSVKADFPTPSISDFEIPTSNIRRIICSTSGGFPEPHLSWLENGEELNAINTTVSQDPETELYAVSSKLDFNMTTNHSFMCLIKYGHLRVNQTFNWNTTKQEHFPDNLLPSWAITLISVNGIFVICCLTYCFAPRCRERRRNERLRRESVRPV

B1: monkey monoclonal anti-B7.1 antibody 7C10 (antibody, V domains shown)
VH: QVKLQQWGEGLLQPSETLSRTCVVSGGSISGYYYWTWIRQTPGRGLEWIGHIYGNGATTNYNPSLKSRVTISKDTSKNQFFLNLNSVTDADTAVYYCARGPRPDCTTICYGGWVDVWGPGDLVTVSS
VL: AYELTQPPSVSVSPGQTARITCGGDNSRNEYVHWYQQKPARAPILVIYDDSDRPSGIPERFSGSKSGNTATLTINGVEAGDEADYYCQVWDRASDHPVFGGGTRVTVL
notes: Tested as the original cynomolgus monkey Ig from a heterohybridoma; A leader may be included in the entries; also called 7C10 monkey Ig
B2: monkey monoclonal anti-B7.1 antibody 16C10 (antibody, V domains shown)
VH: QVQLQESGPGLVKPSETLSLTCAVSGGSISGGYGWGWIRQPPGKGLEWIGSFYSSSGNTYYNPSLKSQVTISTDTSKNQFSLKLNSMTAADTAVYYCVRDRLFSVVGMVYNNWFDVWGPGVLVTVSS
VL: ESVLTQPPSVSGAPGQKVTISCTGSTSNIGGYDLHWYQQLPGTAPKLLIYDINKRPSGISDRFSGSKSGTAASLAITGLQTEDEADYYCQSYDSSLNAQVFGGGTRLTVL
notes: Tested as the original cynomolgus monkey Ig from a heterohybridoma
B3: monkey monoclonal anti-B7.1 antibody 7B6 (antibody, V domains shown)
VH: EVQLVESGGGLVQPGGSLRVSCAVSGFTFSDHYMYWFRQAPGKGPEWVGFIRNKPNGGTTEYAASVKDRFTISRDDSKSIAYLQMSSLKIEDTAVYYCTTSYISHCRGGVCYGGYFEFWGQGALVTVSS
VL: EVVMTQSPLSLPITPGEPASISCRSSQSLKHSNGDTFLSWYQQKPGQPPRLLIYKVSNRDSGVPDRFSGSGAGTDFTLKISAVEAEDVGVYFCGQGTRTPPTFGGGTKVEIK
notes: as for B2

For orientation: Kd means the equilibrium constant for the complex coming apart. The low end stands for a tighter complex, the high end for a looser complex.

One test addresses T1, B7.1/Ig fusion protein. Description: Scatchard analysis, binding to B7-Ig coated plates.
In turn, B1 came in with a Kd of around 6.2 nM.

In the case of B2, the Kd is around 8.1 nM.

B3 gave a Kd of around 10.7 nM.

In a further test the target is T1, B7.1/Ig fusion protein. Description: Scatchard analysis, binding to B7-Ig coated plates. The source holds these as a separate data set.
Consider B1, for which the Kd is around 6.2 nM.

Molecule B2 registered a Kd of around 8.1 nM.

The molecule B3 came in with a Kd of around 10.7 nM.

Another test concerns the target T2, membrane associated human B7.1 on cells. In words: cell-based or functional assay.
In the case of B1, the “inhibit IL-2 production in mixed lymphocyte reaction” value (from here on “inhibit IL-2 production”) is 5 µg/mL.

Turning to B2, the “inhibit IL-2 production” value is 0.1 µg/mL.

Turning to B3, the “inhibit IL-2 production” value was found to be 5 µg/mL.
